The subject of the data set is Escherichia coli TOP10. The data set can be described thus: shrunken log2 fold change of peptide-encoding DNA abundance (4.5 h post-induction vs induction); higher = less antimicrobial activity (less host growth inhibition). The note with it: time post-induction: 4.5 h; library: site-saturation at positions 5, 18, 19, 20.
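Also: peptides expressed intracellularly from a pBAD plasmid library in pooled LB shake-flask culture, induced with 0.3% L-arabinose, DNA abundance read by NGS, three biological replicates, DESeq2 with apeglm shrinkage.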

With RRIRERPPRLPRPRPRPSCSPRP, the “shrunken log2 fold change” value was -0.412.
Under RRIRARPPRLPRPRPRPNDMPRP stands -0.00462.
Turning to RRIRNRPPRLPRPRPRPDQFPRP, the “shrunken log2 fold change” value is -0.0466.
To RRIRWRPPRLPRPRPRPGYTPRP belongs -0.13.
RRIRSRPPRLPRPRPRPRWYPRP: the “shrunken log2 fold change” value was -0.402.
RRIRGRPPRLPRPRPRPQETPRP: the “shrunken log2 fold change” value is -0.0108.
Under RRIRNRPPRLPRPRPRPHLKPRP stands -0.875; under RRIRRRPPRLPRPRPRPTQMPRP, 0.694.
Regarding RRIRWRPPRLPRPRPRPAPRPRP, the “shrunken log2 fold change” value came to 1.12.
Consider RRIRARPPRLPRPRPRPGDLPRP, for which the “shrunken log2 fold change” value is 0.796.
Turning to RRIRTRPPRLPRPRPRPILGPRP, the “shrunken log2 fold change” value is 0.0438.
As for RRIRRRPPRLPRPRPRPAVIPRP, the “shrunken log2 fold change” value was determined as 0.00992.
Take RRIRWRPPRLPRPRPRPNDDPRP: the “shrunken log2 fold change” value amounted to 0.0584.
Under RRIRKRPPRLPRPRPRPQKSPRP stands 0.0653; under RRIRMRPPRLPRPRPRPLWVPRP, 0.0224; under RRIRPRPPRLPRPRPRPIYDPRP, -0.251.
As for RRIRTRPPRLPRPRPRPCSVPRP, the “shrunken log2 fold change” value was 0.0123.
With RRIRYRPPRLPRPRPRPRWLPRP, the “shrunken log2 fold change” value was -0.109.
RRIRNRPPRLPRPRPRPNAAPRP: the “shrunken log2 fold change” value is -0.149.
Take RRIRSRPPRLPRPRPRPMHHPRP: the “shrunken log2 fold change” value is -0.0364.
To RRIRGRPPRLPRPRPRPCEGPRP belongs 0.364; to RRIRRRPPRLPRPRPRPEGLPRP, 2.59; to RRIRRRPPRLPRPRPRPVVNPRP, 0.61.
To RRIRVRPPRLPRPRPRPHEPPRP belongs -0.0412; to RRIRRRPPRLPRPRPRPFILPRP, -0.293.
To RRIRMRPPRLPRPRPRPMKVPRP belongs 0.0398.
As to RRIRHRPPRLPRPRPRPDMGPRP, the “shrunken log2 fold change” value is 0.00739.
Under RRIRWRPPRLPRPRPRPHIIPRP stands -0.441.
Regarding RRIRVRPPRLPRPRPRPGHFPRP, the “shrunken log2 fold change” value was found to be 0.136.
To RRIRYRPPRLPRPRPRPIQRPRP belongs -0.00865; to RRIRDRPPRLPRPRPRPPLGPRP, 0.547; to RRIRFRPPRLPRPRPRPDGIPRP, -0.255.
Under RRIRKRPPRLPRPRPRPEMGPRP stands 0.502.
To RRIRFRPPRLPRPRPRPDLTPRP belongs -0.181; to RRIRPRPPRLPRPRPRPKDWPRP, 0.342; to RRIRVRPPRLPRPRPRPHHCPRP, -0.74.
With RRIRFRPPRLPRPRPRPNASPRP, the “shrunken log2 fold change” value was -0.304.
Under RRIRMRPPRLPRPRPRPKAQPRP stands 1.72.
As to RRIRWRPPRLPRPRPRPCQCPRP, the “shrunken log2 fold change” value was -0.000687.
In the case of RRIRDRPPRLPRPRPRPAFAPRP, the “shrunken log2 fold change” value is 0.928.
Under RRIRRRPPRLPRPRPRPCFPPRP stands 0.592; under RRIRYRPPRLPRPRPRPSVRPRP, -0.301; under RRIRDRPPRLPRPRPRPAPWPRP, 0.226.
Under RRIRGRPPRLPRPRPRPGEKPRP stands 1.4.
To RRIRSRPPRLPRPRPRPCMNPRP belongs -0.206; to RRIRRRPPRLPRPRPRPVPAPRP, 1.06.
On to RRIRCRPPRLPRPRPRPKDMPRP, for which the “shrunken log2 fold change” value was -0.531.
Under RRIRCRPPRLPRPRPRPIKPPRP stands -0.259; under RRIRKRPPRLPRPRPRPYRKPRP, 0.0413; under RRIRERPPRLPRPRPRPNIEPRP, -0.136.
To RRIRLRPPRLPRPRPRPWDLPRP belongs -0.00277; to RRIRTRPPRLPRPRPRPPVIPRP, 0.213.
Regarding RRIRTRPPRLPRPRPRPHFNPRP, the “shrunken log2 fold change” value was -0.556.
As for RRIRARPPRLPRPRPRPLCRPRP, the “shrunken log2 fold change” value turned out to be 0.327.
Under RRIRIRPPRLPRPRPRPECTPRP stands -0.0501.
To RRIRPRPPRLPRPRPRPGFAPRP belongs 0.318; to RRIRMRPPRLPRPRPRPIPTPRP, 0.0467.
To RRIRNRPPRLPRPRPRPERWPRP belongs 0.699; to RRIRSRPPRLPRPRPRPPDEPRP, 0.813.
Turning to RRIRCRPPRLPRPRPRPERWPRP, the “shrunken log2 fold change” value was determined as 0.877.
Regarding RRIRMRPPRLPRPRPRPAWGPRP, the “shrunken log2 fold change” value came to 0.81.
Under RRIRTRPPRLPRPRPRPHMQPRP stands -0.249.
Under RRIRERPPRLPRPRPRPQASPRP stands -0.328.
Turning to RRIRNRPPRLPRPRPRPCFSPRP, the “shrunken log2 fold change” value is -0.378.
For the sequence RRIRFRPPRLPRPRPRPQWIPRP, the “shrunken log2 fold change” value was -0.148.
Under RRIRVRPPRLPRPRPRPAIHPRP stands -0.23; under RRIRKRPPRLPRPRPRPHGYPRP, 0.0773; under RRIRPRPPRLPRPRPRPLLPPRP, -0.0532.
Under RRIRNRPPRLPRPRPRPMIKPRP stands -0.456.
For the sequence RRIRRRPPRLPRPRPRPKNSPRP, the “shrunken log2 fold change” value is -0.0537.
Under RRIRFRPPRLPRPRPRPKVFPRP stands 0.0358; under RRIRWRPPRLPRPRPRPCAPPRP, -0.0663.
Under RRIRIRPPRLPRPRPRPVWYPRP stands -0.84.
With RRIRQRPPRLPRPRPRPFIGPRP, the “shrunken log2 fold change” value is -0.281.
Under RRIRPRPPRLPRPRPRPWDGPRP stands -0.0681.
Consider RRIRKRPPRLPRPRPRPSMGPRP, for which the “shrunken log2 fold change” value is -0.267.
For RRIRRRPPRLPRPRPRPMPLPRP, the “shrunken log2 fold change” value is 2.47.
To RRIRHRPPRLPRPRPRPRDHPRP belongs 0.175.
Under RRIRPRPPRLPRPRPRPLLTPRP stands 0.252.
To RRIRFRPPRLPRPRPRPEWAPRP belongs 0.398.
In the case of RRIRSRPPRLPRPRPRPWEAPRP, the “shrunken log2 fold change” value worked out at 0.019.
Regarding RRIRVRPPRLPRPRPRPPGWPRP, the “shrunken log2 fold change” value came out at 0.718.
Under RRIRGRPPRLPRPRPRPTQWPRP stands 0.387.
Under RRIRGRPPRLPRPRPRPQNMPRP stands -0.399; under RRIRMRPPRLPRPRPRPIQFPRP, -0.318.
To RRIRCRPPRLPRPRPRPSLCPRP belongs -0.49.
Regarding RRIRHRPPRLPRPRPRPGNIPRP, the “shrunken log2 fold change” value was -0.227.
RRIRYRPPRLPRPRPRPYETPRP: the “shrunken log2 fold change” value was 0.112.
Under RRIRPRPPRLPRPRPRPMQVPRP stands -0.012; under RRIRFRPPRLPRPRPRPSPQPRP, 0.0415; under RRIRWRPPRLPRPRPRPMCPPRP, -0.232.

(Values after the supplement of paper PMC9112550, “Optimization of the antimicrobial peptide Bac7 by deep mutational scanning” (BMC Biology, 2022).)
